Assay [1] has as its target recombinant HDM2 17-125 (human) (UniProt Q00987). Kind of assay: fluorescence polarization, FITC-labeled peptide with HDM2 17-125. Background: In fluorescence polarisation assays a small probe gives low polarisation when free and higher when bound to something large.
Assay [2] shares this target. Kind of assay: fluorescence polarization, FITC-peptide with titrated HDM2 17-125; the concentration is that of hDM2.

Bridge positions count the residues as written; N and C are the ends. Square brackets hold non-standard residues; d marks the D form. Ends that are not written are not given here. R8 = C=CCCCCCC[C@@](C)(N)C(=O)O; S5 = C=CCCC[C@](C)(N)C(=O)O

recombinant HDM2 17-125 (human), sequence (Q00987 17-125 limits assumed): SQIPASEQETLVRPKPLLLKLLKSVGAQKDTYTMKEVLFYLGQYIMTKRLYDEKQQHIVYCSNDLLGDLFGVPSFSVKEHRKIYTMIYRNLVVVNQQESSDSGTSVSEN

The Kd is the concentration at which binding is half-saturated. What is called EC50 (read off the curve) is the concentration giving half of the maximal effect. For the molecule LSQETF[R8]NLWKLL[S5]QN-NH2 (peptide, from a related filing, staple 7-14; not fully specified (N-terminus)) [FITC-SAH-p53-5], the Kd in assay [1] was 0.8 nM. Further, in assay [2], the EC50 (read off the curve) was 0.8 nM.
For the molecule QSQQTF[R8]NLWKLL[S5]QN-NH2 (peptide, from a related filing, staple 7-14; not fully specified (N-terminus)) [FITC-SAH-p53-7], the equilibrium dissociation constant (Kd) in assay [1] was 50 nM.
As to LSQETF[R8]DLWKLL[S5]EN-NH2 (peptide, from a related filing, staple 7-14; not fully specified (N-terminus)) [FITC-SAH-p53-4], the dissociation constant Kd in assay [1] was found to be 0.92 nM.
For LSQQTF[R8]NLWRLL[S5]QN-NH2 (peptide, from a related filing, staple 7-14; not fully specified (N-terminus)) [FITC-SAH-p53-6], in assay [1], the Kd turned out to be 56 nM.

The record behind these values is patent publication US20170081379A1.
